B1: PD_(RgpB), recombinant N-terminal prodomain of RgpB (domain or fragment)
chain: GPLGSQPAERGRNPQVRLLSAEQSMSKVQFRMDNLQFTGVQTSKGVAQVPTFTEGVNISEKGTPILPILSRSLAVSETRAMKVEVVSSKFIEKKDVLIAPSKGVISRAENPDQIPYVYGQSYNEDKFFPGEIATLSDPFILRDVRGQVVNFAPLQYNPVTKTLRIYTEIVVAVSETAEAGQNTISLVKNSTFTGFEDIYKSVFMNYEATR
B2: PD_(RgpA), recombinant N-terminal prodomain of RgpA (domain or fragment)
chain: QQTELGRNPNVRLLESTQQSVTKVQFRMDNLKFTEVQTPKGMAQVPTYTEGVNLSEKGMPTLPILSRSLAVSDTREMKVEVVSSKFIEKKNVLIAPSKGMIMRNEDPKKIPYVYGKSYSQNKFFPGEIATLDDPFILRDVRGQVVNFAPLQYNPVTKTLRIYTEITVAVSETSEQGKNILNKKGTFAGFEDTYKRMFMNYEPGR

Columns and labels:
[1] = molecular target: T1, low molecular weight gingipain R (RgpB) (Porphyromonas gingivalis, UniProt P95493 230-664); experiment: cell-based or functional assay
[2] = molecular target: T1, low molecular weight gingipain R (RgpB); experiment: cell-based or functional assay; remark: listed apart in the source
[3] = molecular target: membrane-type RgpB (mt-RgpB), glycosylated (Porphyromonas gingivalis, UniProt P95493 230-736, heavily glycosylated); experiment: cell-based or functional assay
[4] = molecular target: gingipain K (Kgp) (Porphyromonas gingivalis); experiment: enzyme inhibition kinetics
[5] = molecular target: T1, low molecular weight gingipain R (RgpB); experiment: SEC
[6] = molecular target: T1, low molecular weight gingipain R (RgpB); experiment: enzyme inhibition kinetics
[7] = molecular target: T1, low molecular weight gingipain R (RgpB); experiment: enzyme inhibition kinetics; remark: listed apart in the source

| Binder | IC50 of inhibition of amidolytic activity (L-BAPNA), 10 nM enzyme [1] | IC50 of inhibition of aminopeptidase activity (H-Arg-AMC), 10 nM enzyme [1] | IC50 of inhibition of proteolytic activity (Azocoll), 10 nM enzyme [1] | IC50 of inhibition of Rgp activity (L-BAPNA): RgpB (purified non-glycosylated) [2] | IC50 of inhibition of Rgp activity (L-BAPNA): mt-RgpB (purified) [3] | Ki [4] | stoichiometry N [5] | koff [6] | kon [6] | Ki [7] |
| --- | --- | --- | --- | --- | --- | --- | --- | --- | --- | --- |
| B1 | 23.7 nM | 7.2 nM | 7.1 nM | 15 nM | 188 nM | > 5000 nM | 1 | 3.1e-05 s⁻¹ | 5020 M⁻¹ s⁻¹ | 6.2 nM |
| B2 | 15.7 nM | 6.9 nM | 7.3 nM | – | – | > 5000 nM | – | 1.3e-05 s⁻¹ | 6070 M⁻¹ s⁻¹ | 2.1 nM |
